Entries after “also recorded” stand apart in the source; their conditions may differ.
Key:
MKK4 = target: T1, MKK4 (Homo sapiens, UniProt P45985); assay: MBP pull-down of purified MKK4; type: binding; settings: for binding of MKK4 in MBP pull-down: purified GST-MKK4, peptide as MBP-fusion immobilized on amylose
T1 sequence (P45985 1-399): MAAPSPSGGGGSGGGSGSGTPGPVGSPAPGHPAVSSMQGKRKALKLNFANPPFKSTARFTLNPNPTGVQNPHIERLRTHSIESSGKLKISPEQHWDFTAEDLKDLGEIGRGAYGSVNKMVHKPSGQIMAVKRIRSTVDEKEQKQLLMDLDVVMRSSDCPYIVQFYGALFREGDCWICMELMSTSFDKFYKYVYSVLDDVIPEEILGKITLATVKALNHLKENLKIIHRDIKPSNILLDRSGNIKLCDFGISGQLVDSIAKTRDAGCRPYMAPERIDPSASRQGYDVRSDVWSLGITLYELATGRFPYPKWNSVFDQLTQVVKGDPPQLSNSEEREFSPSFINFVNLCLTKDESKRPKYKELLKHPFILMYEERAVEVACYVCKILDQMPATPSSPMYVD
Procedure: (§1) T1A was expressed in E. coli as an MBP-fusion and purified it on an amylose column^23. The ability of purified GST-MKK4 or GST-MKK7 (FIG. 1A) to bind MBP-T1A immobilized on an amylose column was tested in an in vitro pull-down assay, where MBP and MBP-arrestin-3 served as negative and positive controls, respectively (FIG. 1B). MBP-T1A, but not control MBP, effectively retained both kinases (FIG. 1B). […] Next, it was tested whether T1A binds the uppermost kinase in the cascade, ASK1. Because ASK1 is not available in purified form, HA-tagged ASK1 and YFP-tagged T1A (using YFP as a control) were co-expressed in COS7 cells, lysed the cells, and immunoprecipitated YFP constructs with anti-GFP antibody (FIG. 1C).
To make MBP-fusions containing arrestin-2/3 elements, the cDNAs encoding arrestin fragments were subcloned into pMal-p2T (generous gift from Dr. Keiji Tanaka, Tokyo Institute of Medical Science) between Eco RI and Xho I sites in frame with MBP, as described^23. MBP-Arr3 (full-length arrestin-3) was created by subcloning the corresponding cDNA into pMal-p2T between Eco RI and Not I sites^23. All MBP-arrestin-3 fusion proteins contained the same […] (SEQ ID NO:29) linker between MBP and arrestin-3 or its fragments. The MBP protein used as negative control was purified using empty pMal-p2T vector containing the same linker with 10 additional residues: […] (SEQ ID NO:30). MBP fusions were purified, as described^23. MBP pull-down was performed, as described^23. Briefly, Indicated MBP fusions (10-30 μg in 50 μL 20 mM Tris/150 mM NaCl) were immobilized on amylose resin (25 μL, 50% slurry, New England Biolabs) for 1 h at 4° C. with slight rotation. Purified, as described^40, MKK4/7 (10 μg in 50 μL 20 mM Tris/150 mM NaCl) were added to the immobilized MBP fusions and rotated gently for 2 h at 4° C. Samples were transferred to centrifuge filters (Durapore®-PVDF-0.65 μm), washed three times with 50 mM HEPES-Na, pH 7.3, 150 mM NaCl. The proteins were eluted by 100 μl of elution buffer (wash buffer containing 50 mM maltose) by gentle rotation for 5 min at 4° C. Eluates were analyzed by SDS-PAGE and Western blotting.

MKK7 = target: T2, MKK7 (Homo sapiens, UniProt O14733); assay: MBP pull-down of purified MKK7; type: binding; settings: purified GST-MKK7; peptide as MBP-fusion immobilized on amylose
T2 sequence (O14733 1-419): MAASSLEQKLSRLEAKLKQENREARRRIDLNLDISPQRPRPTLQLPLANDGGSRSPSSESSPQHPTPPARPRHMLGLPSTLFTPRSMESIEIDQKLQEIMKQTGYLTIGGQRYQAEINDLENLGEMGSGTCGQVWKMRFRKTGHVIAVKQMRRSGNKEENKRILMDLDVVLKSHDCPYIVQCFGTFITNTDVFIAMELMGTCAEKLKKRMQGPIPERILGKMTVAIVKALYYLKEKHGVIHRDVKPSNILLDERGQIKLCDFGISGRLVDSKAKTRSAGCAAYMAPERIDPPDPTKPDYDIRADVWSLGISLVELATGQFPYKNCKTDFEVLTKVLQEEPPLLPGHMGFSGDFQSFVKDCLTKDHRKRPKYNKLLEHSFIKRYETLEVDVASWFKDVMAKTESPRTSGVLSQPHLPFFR
Procedure: as §1
To make MBP-fusions containing arrestin-2/3 elements, the cDNAs encoding arrestin fragments were subcloned into pMal-p2T (generous gift from Dr. Keiji Tanaka, Tokyo Institute of Medical Science) between Eco RI and Xho I sites in frame with MBP, as described^23. MBP-Arr3 (full-length arrestin-3) was created by subcloning the corresponding cDNA into pMal-p2T between Eco RI and Not I sites^23. All MBP-arrestin-3 fusion proteins contained the same […] (SEQ ID NO:29) linker between MBP and arrestin-3 or its fragments. […] Eluates were analyzed by SDS-PAGE and Western blotting.

binding of MKK7 in MBP pull-down (MKK7)	Substance	binding of MKK4 in MBP pull-down (MKK4)	interaction with MKK4 compared with MKK7 (MKK4; MBP pull-down, purified proteins)
less robust interaction	MGDK-GTRVFKKASPNGKLTVYLGK (MGDKGTRVFKKASPNGKLTVYLGK; N-terminal MGDK; bovine) [B1A, homologous N-terminal peptide from arrestin-2, negative control]	comparably bind MKK4	–
binds both MKKs	MGEKPGTRVFKKSSPNCKLTVYLGK (bovine) [T1A, first 25 residues of arrestin-3]	binds both MKKs; also recorded: comparably bind MKK4	stronger interaction with MKK4 than with MKK7
